Laboratory results reported in article PMC6625726, “A polymorphic helix of a Salmonella needle protein relays signals defining distinct steps in type III secretion” (PLoS Biology, 2019).
Numbering of substitutions follows the chain as printed. Names and notes keep the numbering of the source.

B1: PrgI, wild type, recombinant (natural protein)
chain: MATPWSGYLDDVSAKFDTGVDNLQTQVTEALDKLAAKPSDPALLAAYQSKLSEYNLYRNAQSNTVKVFKDIDAAIIQNFR
notes: needle filament protein PrgI of the SPI-1 T3SS, 80 amino acids; pET15b, thrombin-cleavable tag; polymerised in vitro into filaments; also called PrgI^WT; WT PrgI; not shown: His6, N-terminal, cleaved
B2: PrgI^L56A, recombinant (natural protein, Salmonella enterica serovar Typhimurium, UniProt P41784 1-80, looked up)
chain: B1 chain with L56A
notes: needle filament protein PrgI of the SPI-1 T3SS, 80 amino acids; not shown: His6, N-terminal, cleaved
B3: PrgI^L9A, recombinant (natural protein, Salmonella enterica serovar Typhimurium, UniProt P41784 1-80, looked up)
chain: B1 chain with L9A
notes: as for B2
B4: PrgI^R58A, recombinant (natural protein, Salmonella enterica serovar Typhimurium, UniProt P41784 1-80, looked up)
chain: B1 chain with R58A
notes: needle filament protein PrgI of the SPI-1 T3SS, 80 amino acids; used for solid-state NMR; not shown: His6, N-terminal, cleaved
B5: PrgI^V20A, recombinant (natural protein, Salmonella enterica serovar Typhimurium, UniProt P41784 1-80, looked up)
chain: B1 chain with V20A
notes: as for B4
B6: PrgI^D70K, recombinant (natural protein, Salmonella enterica serovar Typhimurium, UniProt P41784 1-80, looked up)
chain: B1 chain with D70K
notes: as for B2
B7: PrgI^F16A, recombinant (natural protein, Salmonella enterica serovar Typhimurium, UniProt P41784 1-80, looked up)
chain: B1 chain with F16A
notes: as for B2
B8: PrgI, wild type, in S. Typhimurium (natural protein)
chain: B1 chain
notes: needle filament protein PrgI of the SPI-1 T3SS, 80 amino acids; assembled in vivo into the needle filament of the injectisome; also called WT PrgI; needle filament; source: S. Typhimurium ΔprgI ΔprgJ, from the low-copy plasmid pWSK29 (with prgJ); or chromosomal in wild-type and ΔsipD strains
B9: PrgI^V67A, recombinant (natural protein, Salmonella enterica serovar Typhimurium, UniProt P41784 1-80, looked up)
chain: B1 chain with V67A
notes: as for B2
B10: PrgI^K66E, recombinant (natural protein, Salmonella enterica serovar Typhimurium, UniProt P41784 1-80, looked up)
chain: B1 chain with K66E
notes: as for B2
B11: PrgI^T3A, recombinant (natural protein, Salmonella enterica serovar Typhimurium, UniProt P41784 1-80, looked up)
chain: B1 chain with T3A
notes: as for B2
B12: PrgI^L31A, recombinant (natural protein, Salmonella enterica serovar Typhimurium, UniProt P41784 1-80, looked up)
chain: B1 chain with L31A
notes: as for B2
B13: PrgI^Q77R, recombinant (natural protein, Salmonella enterica serovar Typhimurium, UniProt P41784 1-80, looked up)
chain: B1 chain with Q77R
notes: as for B4
B14: PrgI^S49A, recombinant (natural protein, Salmonella enterica serovar Typhimurium, UniProt P41784 1-80, looked up)
chain: B1 chain with S49A
notes: as for B2

Tests used:
[1] = target: the molecule itself; assay: in vitro polymerization seen by negative-stain electron microscopy; His-tag cleaved with thrombin; concentrated to approximately 1 mg/ml in 20 mM MES, pH 5.5, overnight at room temperature; 2% phosphotungstic acid stain
[2] = target: the molecule itself; assay: solid-state NMR of filaments; magic-angle spinning, 800 MHz, 11 kHz, approximately 278 K; 13C-detected 1D and 2D spectra of needle filaments
[3] = target: the molecule itself; assay: cryo-EM structure; needle filaments boxed out from fully assembled needle complexes isolated by affinity chromatography (in vivo assembled, attached to the base); helical reconstruction
[4] = target: the molecule itself; assay: cryo-EM structure; filaments polymerized in vitro from purified protein, sonicated; helical reconstruction

Row | Protein | binding result [1] | also measured
1 | B1 | binds | –
2 | B2 | binds | –
3 | B3 | binds | –
4 | B4 | – | binding result [2]: binds
5 | B5 | – | binding result [2]: binds
6 | B6 | binds | –
7 | B7 | binds | –
8 | B8 | – | binding result [3]: binds
9 | B9 | – | binding result [4]: binds
10 | B10 | binds | –
11 | B11 | binds | –
12 | B12 | binds | –
13 | B13 | – | binding result [2]: binds
14 | B14 | – | binding result [4]: binds
